B2: GST-HDAC4(aa 612-1084) (enzyme, human, UniProt P56524 612-1084, looked up)
chain: MEAAGIPVSFGGHRPLSRAQSSPASATFPVSVQEPPTKPRFTTGLVYDTLMLKHQCTCGSSSSHPEHAGRIQSIWSRLQETGLRGKCECIRGRKATLEELQTVHSEAHTLLYGTNPLNRQKLDSKKLLGSLASVFVRLPCGGVGVDSDTIWNEVHSAGAARLAVGCVVELVFKVATGELKNGFAVVRPPGHHAEESTPMGFCYFNSVAVAAKLLQQRLSVSKILIVDWDVHHGNGTQQAFYSDPSVLYMSLHRYDDGNFFPGSGAPDEVGTGPGVGFNVNMAFTGGLDPPMGDAEYLAAFRTVVMPIASEFAPDVVLVSSGFDAVEGHPTPLGGYNLSARCFGYLTKQLMGLAGGRIVLALEGGHDLTAICDASEACVSALLGNELDPLPEKVLQQRPNANAVRSMEKVMEIHSKYWRCLQRTTSTAGRSLIEAQTCENEEAETVTAMASLSVGVKPAEKRPDEEPMEEEPPL
notes: range 612-1084; also called recombinant fusion protein corresponding to the catalytically active domain of HDAC4; not shown: glutathione-S-transferase (GST), fusion partner
B3: endogenous HDAC3 (enzyme, UniProt O15379 1-428, looked up)
chain: MAKTVAYFYDPDVGNFHYGAGHPMKPHRLALTHSLVLHYGLYKKMIVFKPYQASQHDMCRFHSEDYIDFLQRVSPTNMQGFTKSLNAFNVGDDCPVFPGLFEFCSRYTGASLQGATQLNNKICDIAINWAGGLHHAKKFEASGFCYVNDIVIGILELLKYHPRVLYIDIDIHHGDGVQEAFYLTDRVMTVSFHKYGNYFFPGTGDMYEVGAESGRYYCLNVPLRDGIDDQSYKHLFQPVINQVVDFYQPTCIVLQCGADSLGCDRLGCFNLSIRGHGECVEYVKSFNIPLLVLGGGGYTVRNVARCWTYETSLLVEEAISEELPYSEYFEYFAPDFTLHPDVSTRIENQNSRQYLDQIRQTIFENLKMLNHAPSVQIHDVPADLLTYDRTDEADAEERGPEENYSRPEAPNEFYDGDHDNDKESDVEI
notes: SupT1 and 293 are human cell lines

Experiments:
endogenous HDAC3 [1] = target: B3; assay: cell-based or functional assay
endogenous HDAC3, O15379 = target: T1, endogenous HDAC3, O15379
T1 chain: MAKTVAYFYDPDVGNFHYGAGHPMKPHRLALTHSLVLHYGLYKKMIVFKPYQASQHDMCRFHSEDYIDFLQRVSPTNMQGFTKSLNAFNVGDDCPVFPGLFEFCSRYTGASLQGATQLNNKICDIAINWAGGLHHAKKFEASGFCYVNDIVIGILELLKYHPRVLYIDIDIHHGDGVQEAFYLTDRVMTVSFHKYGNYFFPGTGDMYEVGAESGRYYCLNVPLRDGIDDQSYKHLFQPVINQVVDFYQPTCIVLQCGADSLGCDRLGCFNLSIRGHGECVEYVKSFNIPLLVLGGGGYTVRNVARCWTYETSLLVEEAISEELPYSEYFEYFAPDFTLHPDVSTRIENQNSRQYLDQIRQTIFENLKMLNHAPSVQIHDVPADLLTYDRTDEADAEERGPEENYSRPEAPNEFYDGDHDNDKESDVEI

endogenous HDAC1 = endogenous HDAC1 (UniProt Q13547 1-482); assay: repeated incubation of 293 or SupT1 extracts with the GST fusion, western blot of the depleted extract
GST-HDAC4(aa 612-1084) = target: B2; assay: as above
[2] = target: T2, FLAG-tagged HDAC7-ΔMEF (expressed in DO11.10 cells) (human, UniProt Q8WUI4 1-952); assay: anti-FLAG immunoprecipitation from DO11.10 polyclonal cell lines, endogenous MEF2D
T2 construct: not shown: FLAG tag
T2 sequence: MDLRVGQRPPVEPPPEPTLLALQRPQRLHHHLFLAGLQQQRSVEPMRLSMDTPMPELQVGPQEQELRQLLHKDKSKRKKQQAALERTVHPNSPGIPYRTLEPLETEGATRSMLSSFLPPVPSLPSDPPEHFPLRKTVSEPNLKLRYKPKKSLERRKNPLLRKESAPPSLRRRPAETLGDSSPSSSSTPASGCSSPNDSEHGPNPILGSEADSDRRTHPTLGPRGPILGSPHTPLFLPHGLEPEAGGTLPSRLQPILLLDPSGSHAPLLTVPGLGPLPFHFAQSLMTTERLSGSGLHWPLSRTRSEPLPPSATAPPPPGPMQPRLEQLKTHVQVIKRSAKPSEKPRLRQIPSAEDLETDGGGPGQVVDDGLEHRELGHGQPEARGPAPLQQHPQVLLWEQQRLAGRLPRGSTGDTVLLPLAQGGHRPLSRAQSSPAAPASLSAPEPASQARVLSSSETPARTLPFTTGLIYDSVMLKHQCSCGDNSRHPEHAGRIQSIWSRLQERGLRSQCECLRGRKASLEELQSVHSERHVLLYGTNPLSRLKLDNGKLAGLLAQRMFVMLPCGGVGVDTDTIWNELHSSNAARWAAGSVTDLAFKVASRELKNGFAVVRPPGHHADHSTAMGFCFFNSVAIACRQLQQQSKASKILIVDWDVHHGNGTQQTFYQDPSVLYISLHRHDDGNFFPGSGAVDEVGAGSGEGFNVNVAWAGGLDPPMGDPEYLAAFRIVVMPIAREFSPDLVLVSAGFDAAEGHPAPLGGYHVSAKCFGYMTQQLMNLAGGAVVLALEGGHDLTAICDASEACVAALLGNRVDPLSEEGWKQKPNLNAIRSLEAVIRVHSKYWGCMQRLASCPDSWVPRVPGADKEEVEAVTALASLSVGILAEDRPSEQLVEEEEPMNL

[3] = target: T3, FLAG-tagged HDAC7-K86AK88A (expressed in DO11.10 cells) (human, UniProt Q8WUI4 1-952); assay: as above
T3 construct: not shown: FLAG tag
T3 sequence: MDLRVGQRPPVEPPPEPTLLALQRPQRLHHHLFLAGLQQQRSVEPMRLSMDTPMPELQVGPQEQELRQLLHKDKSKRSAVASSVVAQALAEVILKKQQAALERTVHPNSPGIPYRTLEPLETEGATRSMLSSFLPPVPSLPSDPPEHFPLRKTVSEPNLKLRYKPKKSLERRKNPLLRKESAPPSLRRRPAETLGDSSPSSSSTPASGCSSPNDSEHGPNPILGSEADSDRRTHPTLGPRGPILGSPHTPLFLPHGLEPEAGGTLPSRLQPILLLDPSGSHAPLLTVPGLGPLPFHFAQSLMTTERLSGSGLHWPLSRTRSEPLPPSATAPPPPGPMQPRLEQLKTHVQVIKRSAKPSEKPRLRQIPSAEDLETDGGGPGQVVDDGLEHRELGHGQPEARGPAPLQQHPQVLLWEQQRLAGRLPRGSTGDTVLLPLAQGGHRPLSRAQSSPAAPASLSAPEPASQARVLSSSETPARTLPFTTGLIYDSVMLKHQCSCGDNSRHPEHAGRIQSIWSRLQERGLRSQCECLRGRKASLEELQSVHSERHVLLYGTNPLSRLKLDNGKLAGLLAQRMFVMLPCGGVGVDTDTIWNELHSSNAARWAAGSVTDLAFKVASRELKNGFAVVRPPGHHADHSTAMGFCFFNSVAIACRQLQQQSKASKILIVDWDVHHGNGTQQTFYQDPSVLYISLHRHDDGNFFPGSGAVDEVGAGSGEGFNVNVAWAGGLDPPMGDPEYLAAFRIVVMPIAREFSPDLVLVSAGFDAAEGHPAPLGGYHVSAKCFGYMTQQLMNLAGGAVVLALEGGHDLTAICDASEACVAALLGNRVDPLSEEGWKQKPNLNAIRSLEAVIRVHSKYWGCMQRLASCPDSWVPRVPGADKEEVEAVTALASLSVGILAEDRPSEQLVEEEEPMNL

endogenous HDAC3 [4] = target: B3; assay: GST pull-down from SupT1 cell extracts, western blot

Chain of endogenous HDAC1 (Q13547 whole entry, the tested form may be a part): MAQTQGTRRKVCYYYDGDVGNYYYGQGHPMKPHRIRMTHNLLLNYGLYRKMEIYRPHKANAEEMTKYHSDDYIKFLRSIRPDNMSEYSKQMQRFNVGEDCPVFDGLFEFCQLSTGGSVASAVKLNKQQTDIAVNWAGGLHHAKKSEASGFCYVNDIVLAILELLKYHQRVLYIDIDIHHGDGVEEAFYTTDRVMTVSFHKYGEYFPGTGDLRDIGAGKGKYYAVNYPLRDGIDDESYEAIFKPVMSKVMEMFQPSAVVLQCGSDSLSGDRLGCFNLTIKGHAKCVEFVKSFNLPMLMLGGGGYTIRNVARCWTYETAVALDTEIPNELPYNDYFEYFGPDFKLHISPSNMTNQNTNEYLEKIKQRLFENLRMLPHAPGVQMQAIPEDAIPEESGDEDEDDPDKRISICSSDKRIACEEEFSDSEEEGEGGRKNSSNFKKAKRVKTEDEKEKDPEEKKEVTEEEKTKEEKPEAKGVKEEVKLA

B1: HDAC7-FLAG (full-length human HDAC7 with C-terminal FLAG tag, expressed in cells) (protein)
chain: MDLRVGQRPPVEPPPEPTLLALQRPQRLHHHLFLAGLQQQRSVEPMRLSMDTPMPELQVGPQEQELRQLLHKDKSKRSAVASSVVKQKLAEVILKKQQAALERTVHPNSPGIPYRTLEPLETEGATRSMLSSFLPPVPSLPSDPPEHFPLRKTVSEPNLKLRYKPKKSLERRKNPLLRKESAPPSLRRRPAETLGDSSPSSSSTPASGCSSPNDSEHGPNPILGSEADSDRRTHPTLGPRGPILGSPHTPLFLPHGLEPEAGGTLPSRLQPILLLDPSGSHAPLLTVPGLGPLPFHFAQSLMTTERLSGSGLHWPLSRTRSEPLPPSATAPPPPGPMQPRLEQLKTHVQVIKRSAKPSEKPRLRQIPSAEDLETDGGGPGQVVDDGLEHRELGHGQPEARGPAPLQQHPQVLLWEQQRLAGRLPRGSTGDTVLLPLAQGGHRPLSRAQSSPAAPASLSAPEPASQARVLSSSETPARTLPFTTGLIYDSVMLKHQCSCGDNSRHPEHAGRIQSIWSRLQERGLRSQCECLRGRKASLEELQSVHSERHVLLYGTNPLSRLKLDNGKLAGLLAQRMFVMLPCGGVGVDTDTIWNELHSSNAARWAAGSVTDLAFKVASRELKNGFAVVRPPGHHADHSTAMGFCFFNSVAIACRQLQQQSKASKILIVDWDVHHGNGTQQTFYQDPSVLYISLHRHDDGNFFPGSGAVDEVGAGSGEGFNVNVAWAGGLDPPMGDPEYLAAFRIVVMPIAREFSPDLVLVSAGFDAAEGHPAPLGGYHVSAKCFGYMTQQLMNLAGGAVVLALEGGHDLTAICDASEACVAALLGNRVDPLSEEGWKQKPNLNAIRSLEAVIRVHSKYWGCMQRLASCPDSWVPRVPGADKEEVEAVTALASLSVGILAEDRPSEQLVEEEEPMNL
For B1, the HDAC activity of HDAC7-FLAG immunoprecipitated from the cytoplasmic fraction of 293 cells (endogenous HDAC3 [1]) was 3240 counts/min, the HDAC activity of HDAC7-FLAG immunoprecipitated from the nuclear fraction of 293 cells (endogenous HDAC3 [1]) was 14800 counts/min and the “HDAC activity, nuclear against cytoplasmic fraction” value (endogenous HDAC3, O15379) was 4.5 times higher.

For B2, the binding result (endogenous HDAC1) was “no binding” and the HDAC activity associated with the GST pull-down from GST-HDAC4 depleted lysate against GST depleted lysate (fold reduction) (endogenous HDAC3, O15379) was 3.

B3: binds (GST-HDAC4(aa 612-1084)).

B4: endogenous MEF2D of DO11.10 T-cell hybridoma cells (other, UniProt Q63943 1-514, looked up)
chain: MGRKKIQIQRITDERNRQVTFTKRKFGLMKKAYELSVLCDCEIALIIFNHSNKLFQYASTDMDKVLLKYTEYNEPHESRTNADIIETLRKKGFNGCDSPEPDGEDSLEQSPLLEDKYRRASEELDGLFRRYGSSVPAPNFAMPVTVPVSNQSSMQFSNPSSSLVTPSLVTSSLTDPRLLSPQQPALQRNSVSPGLPQRPASAGAMLGGDLNSANGACPSPVGNGYVSARASPGLLPVANGNSLNKVIPAKSPPPPTHNTQLGAPSRKPDLRVITSQGGKGLMHHLTEDHLDLNNAQRLGVSQSTHSLTTPVVSVATPSLLSQGLPFSSMPTAYNTDYQLPSAELSSLPAFSSPAGLALGNVTAWQQPQPPQQPQPPQPPQSQPQPPQPQPQQPPQQQPHLVPVSLSNLIPGSPLPHVGAALTVTTHPHISIKSEPVSPSRERSPAPPPPAVFPAARPEPGEGLSSPAGGSYETGDRDDGRGDFGPTLGLLRPAPEPEAEGSAVKRMRLDTWTLK
B4: no binding [2]; no binding [3].

B5: GST-HDAC7(aa 487-912) (enzyme)
chain: YDSVMLKHQCSCGDNSRHPEHAGRIQSIWSRLQERGLRSQCECLRGRKASLEELQSVHSERHVLLYGTNPLSRLKLDNGKLAGLLAQRMFVMLPCGGVGVDTDTIWNELHSSNAARWAAGSVTDLAFKVASRELKNGFAVVRPPGHHADHSTAMGFCFFNSVAIACRQLQQQSKASKILIVDWDVHHGNGTQQTFYQDPSVLYISLHRHDDGNFFPGSGAVDEVGAGSGEGFNVNVAWAGGLDPPMGDPEYLAAFRIVVMPIAREFSPDLVLVSAGFDAAEGHPAPLGGYHVSAKCFGYMTQQLMNLAGGAVVLALEGGHDLTAICDASEACVAALLGNRVDPLSEEGWKQKPNLNAIRSLEAVIRVHSKYWGCMQRLASCPDSWVPRVPGADKEEVEAVTALASLSVGILAEDRPSEQLVEEEEP
notes: not shown: glutathione-S-transferase (GST) of the pGEX4T1 vector (Pharmacia), N-terminal fusion partner
B5: no binding (endogenous HDAC3 [4]).

Reference: patent US20030143712A1 (J DAVID GLADSTONE INSTITUTES, published 2003)
